Values of other authors as cited in paper PMC4480918.

Experiments:
Test in all cases: NMR
[1] = molecular target: His80 (UniProt position 121, KELYGHTLVWH); details: free enzyme (not the 2FCb glycosyl-enzyme intermediate)
[2] = system: His61; details: redox state not stated
[3] = system: His92; details: redox state not stated

Row | Substance | pKa [1] | pKa [2] | pKa [3]
1 | Catalytic domain of beta-(1,4)-glycosidase Cex (CexCD) (Cellulomonas fimi) | 7.9 | – | –
2 | Plastocyanin (A.v. Pc) (Anabaena variabilis) | – | 7.1 | 5.1
